Measurements from US20190218553, “VON WILLEBRAND FACTOR (VWF)-TARGETING AGENTS AND METHODS OF USING THE SAME” (DUKE UNIVERSITY, published 2019).

Key:
[1] = target: T1, von Willebrand factor (VWF) (Homo sapiens, UniProt P04275 P04275:764-2813); assay: filter; Bmax 80%; 2 mM CaCl2, 37 C; details: tags: factor VIII free human purified VWF, Haematologic Technologies Inc; label: 5'-32P
Procedure: (§1) Affinity constants (Kd values) were determined using double-filter nitrocellulose filter binding assays (Rusconi et al, Thromb. Haemost. $4:841-848 (2000)). All binding studies were performed in binding buffer F (20 mM HEPES, pH 7.4, 150 mM NaCl, 2 mM CaCl₂, and 0.01% BSA) at 37° C. Human purified VWF (factor VIII free) was purchased from Haematologic Technologies Inc. (Essex Junction, Vt.) and used in the double-filter nitrocellulose filter binding assay to determine the Kd of the aptamers. Briefly, RNA were end-labeled at the 5′ end with T4 polynucleotide kinase (New England Biolabs, Beverly, Mass.) and [γ³²P] ATP (Amersham Pharmacia Biotech, Piscataway, N.J.) (Fitzwater and Polisky, Methods Enzymol. 267:275-301 (1996)). End-labeled RNA was diluted in binding buffer F, heat denatured at 65° C. for 5 minutes, and subsequently equilibrated at 37° C. Direct binding was performed by incubating trace ³²P-RNA with varying concentrations of VWF protein in binding buffer F at 37° C. for 5 min. The fraction of the nucleic acid-protein complex which bound to the nitrocellulose membrane was quantified with a phosphorimager (Molecular Dynamics, Sunnyvale, Calif.). Non-specific binding of the radiolabeled nucleic acid was subtracted out of the binding such that only specific binding remained (Wong and Lohman, Proc. Natl. Acad. Sci. USA 90:5428-5432 (1993)).

[2] = target: T1, von Willebrand factor (VWF); assay: filter; Bmax 88%; 2 mM CaCl2, 37 C; details: tags: factor VIII free human purified VWF, Haematologic Technologies Inc; label: 5'-32P
Procedure: as §1

[3] = target: T1, von Willebrand factor (VWF); assay: filter; Bmax 82%; 2 mM CaCl2, 37 C; details: Haematologic Technologies Inc, label: 5'-32P
Procedure: as §1

[4] = target: T1, von Willebrand factor (VWF); assay: filter; Bmax 86%; 2 mM CaCl2, 37 C; details: Haematologic Technologies Inc, label: 5'-32P
Procedure: as §1

[5] = target: T1, von Willebrand factor (VWF); assay: filter; Bmax 58%; 2 mM CaCl2, 37 C; details: tags: factor VIII free, Haematologic Technologies Inc; label: 5'-32P
Procedure: as §1

[6] = target: T1, von Willebrand factor (VWF); assay: filter; Bmax 67%; 2 mM CaCl2, 37 C; details: Haematologic Technologies Inc, label: 5'-32P
Procedure: as §1

[7] = target: T1, von Willebrand factor (VWF); assay: filter; Bmax 78%; 2 mM CaCl2, 37 C; details: tags: factor VIII free human purified VWF, Haematologic Technologies Inc; label: 5'-32P
Procedure: as §1

[8] = target: T1, von Willebrand factor (VWF); assay: filter; Bmax 87%; 2 mM CaCl2, 37 C; details: Haematologic Technologies Inc, label: 5'-32P
Procedure: as §1

[9] = target: T1, von Willebrand factor (VWF); assay: filter; Bmax 54%; 2 mM CaCl2, 37 C; details: tags: factor VIII free, Haematologic Technologies Inc; label: 5'-32P
Procedure: as §1

[10] = target: T1, von Willebrand factor (VWF); assay: filter; Bmax 81%; 2 mM CaCl2, 37 C; details: tags: factor VIII free, Haematologic Technologies Inc; label: 5'-32P
Procedure: as §1

[11] = tags: factor VIII free human purified VWF

B1: T86 vrt1 (ssRNA)
RNA: ACGAACUGCCCUCGUUUCAUCGACGCACAGACGU
modifications: 2'-F C2,U7,C9,C10,C11,U12,C24,C26,C32,U34; ribo A1,G3,G8,A23,G25,A27,G33; rest 2'-OMe; 3' idT
- Kd [1]: 0.9 nM

Binder: ACGAACUGCCCUCGUUUCAUCGACGCACAGACGU (ssRNA, 2'-F C9,C10,C11,C24,C26; ribo G25; rest 2'-OMe; 3' idT) [T86 vrt4]
- Kd [2]: 12 nM

Binder: ACGAACUGCCCUCGAUCGACGCACAGACGU (ssRNA, mAmCmGmAmAmCfUrGfCfCfCfUmCmGmAmUmCmGrAfCrGfCrAmCmAmGmAmCmGfU-idT) [T59 vrt6]
- Kd ([3]; tags: factor VIII free): 0.5 nM

Binder: ACGAACUGCCCUCUAUUUCAUUUGACGCACAGACGU (ssRNA, 2'-F C9,C10,C11,C26,C28; ribo G27; rest 2'-OMe; 3' idT) [T93 vrt4]
- Kd [3, 11]: 5.7 nM

Binder: ACGAACUGCCCUCUAUUUCAUUUGACGCACAGACGU (ssRNA, 2'-F C9,C10,C11,C26,G27,C28,U36; rest 2'-OMe; 3' idT) [T93 vrt6]
- Kd [3, 11]: 33 nM

Binder: ACGAACUGCCCUCGAUCGACGCACAGACGU (ssRNA, mAfCrGmAmAmCfUrGfCfCfCfUmCmGmAmUmCmGrAfCrGfCrAmCmAmGmAfCrGfU-idT) [T59 vrt8]
- Kd ([4]; tags: factor VIII free): 1.8 nM

Binder: ACGAACUGCCCUCGUAUUAUUUCGACGCACAGACGU (ssRNA, 2'-F C9,C10,C11,C26,C28,U36; ribo G27; rest 2'-OMe; 3' idT) [T89 vrt2]
- Kd [1]: 12 nM

Binder: ACGAACUGCCCUCGUAUUAUUUCGACGCACAGACGU (ssRNA, 2'-F G8,C9,C10,C11,A25,C26,G27,C28,A29; rest 2'-OMe; 3' idT) [T89 vrt10]
- Kd [4, 11]: 548 nM

Binder: CCGAACUGCCCUCGAUCGACGCACAGACGG (ssRNA, mCmCmGmAmAmCmUmGfCfCfCmUmCmGmAmUmCmGmAfCrGfCmAmCmAmGmAmCmGmGidT) [DTRI-013]
- Kd [5]: 5.4 nM

Binder: ACGAACUGCCCUCGAUCGACGCACAGACGUAAAAA (ssRNA, 2'-F C9,C10,C11,C20,G21,C22,U30; rest 2'-OMe; 3' idT) [T83 vrt6]
- Kd [6, 11]: 209 nM

Binder: ACGAACUGCCCUCGAUCGACGCACAGACGUACCCG (ssRNA, 2'-F C9,C10,C11,C20,G21,C22,U30; rest 2'-OMe; 3' idT) [T82 vrt6]
- Kd [6, 11]: 223 nM

Binder: ACGAACUGCCCUCGAUCGACGCACAGACGUACCCG (ssRNA, 2'-F C9,C10,C11,C20,G21,C22; rest 2'-OMe; 3' idT) [T82 vrt7]
- Kd [7]: 268 nM

Binder: ACGAACUGCCCUCGAUCGACGCACAGACGUACCCG (ssRNA, 2'-F C9,C10,C11,C20,C22; ribo G21; rest 2'-OMe; 3' idT) [T82 vrt4]
- Kd [8, 11]: 38.5 nM

Binder: ACGAACUGCCCUCGAUCGACGCACAGACGU (ssRNA, rAmCrGmAmAmCfUrGfCfCfCfUmCmGmAmUmCmGrAfCrGfCrAmCmAmGmAfCmGfU-idT) [T59 vrt9]
- Kd ([4]; tags: factor VIII free): 1 nM

B2: T25 vrt5 (ssRNA)
RNA: ACGAACUGCCCUCAGCUACUUUCAUGUUGCUGACGCACAGACGU
modifications: rAfCrGmAmAfCfUrGfCfCfCfUfCrArGfCfUrAfCfUfUfUfCrAfUrGfUfUrGfCfUrGrAfCrGfCrAfCmAmGmAfCrGfU-idT
- Kd [5]: 7.1 nM

B3: T25 vrt14 (ssRNA)
RNA: ACGAACUGCCCUCAGCUACUUUCAUGUUGCUGACGCACAGACGU
modifications: mAfCrGrArAfCfUrGfCfCfCfUfCrArGfCfUrAfCfUfUfUfCrAfUrGfUfUrGfCfUrGrAfCrGfCrAfCrArGrAfCrGmU-idT
- Kd [9]: 9.2 nM

Binder: ACGAACUGCCCUCAGCUACUUUCAUGUUGCUGACGCACAGACGU (ssRNA, 2'-F C and U; 2'-OH A and G; 3' idT) [T25]
- Kd [9]: 13.4 nM

B4: T25 vrt6 (ssRNA)
RNA: ACGAACUGCCCUCAGCUACUUUCAUGUUGCUGACGCACAGACGU
modifications: rAfCrGmAmAmCfUrGfCfCfCfUfCrArGfCfUrAfCfUfUfUfCrAfUrGfUfUrGfCfUrGrAfCrGfCrAmCmAmGmAfCrGfU-idT
- Kd ([6]; tags: factor VIII free): 3.1 nM

Binder: ACGAACUGCCCUCAUUAUUGACGCACAGACGU (ssRNA, 2'-F C and U; 2'-OH A and G; 3' idT) [T70]
- Kd [10]: 13 nM

Binder: ACGAACUGCCCUCUUUUUUGACGCACAGACGU (ssRNA, 2'-F C and U; 2'-OH A and G; 3' idT) [T94]
- Kd ([8]; tags: factor VIII free): 5 nM

Binder: ACGAACUGCCCUCUUUUUUGACGCACAGACGU (ssRNA, 2'-F C9,C10,C11,C22,G23,C24,U32; rest 2'-OMe; 3' idT) [T94 vrt6]
- Kd [7]: 42 nM

Binder: ACGAACUGCCCUCUUUCAUGACGCACAGACGU (ssRNA, 2'-F C and U; 2'-OH A and G; 3' idT) [T87]
- Kd ([4]; tags: factor VIII free): 11 nM
